The labels stand for the following.
T1: Human TROP2 Protein, His Tag (Acro Biosystems) (human, UniProt P09758 27-274)
T1 construct: Bought protein; also called TACSTD2; not shown: His tag
T1 sequence: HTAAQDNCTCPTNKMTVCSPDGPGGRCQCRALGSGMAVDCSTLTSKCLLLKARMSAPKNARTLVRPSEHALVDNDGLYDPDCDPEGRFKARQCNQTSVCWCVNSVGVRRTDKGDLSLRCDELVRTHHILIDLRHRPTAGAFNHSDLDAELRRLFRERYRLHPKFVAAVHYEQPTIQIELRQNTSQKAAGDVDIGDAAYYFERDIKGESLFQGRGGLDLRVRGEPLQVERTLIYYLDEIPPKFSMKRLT

T2: Human TROP2 Protein, His Tag (human, UniProt P09758 27-274)
T2 construct: Bought protein; also called TACSTD2; not shown: His tag
T2 sequence (looked up): T1 sequence

B1: MYT12426 (hu7E6SVG variant, HCV substitutions at 102, 103) (antibody, V domains shown)
VH: QVQLQESGPGLVKPSETLSLTCTVSGGSISSYGVHWIRQPPGKGLEWIGVIWTSGVTDYNSALMGRVTISVDTSKNQFSLKLSSVTAADTAVYYCARDGDYHHYTMDYWGQGTLVTVSS
VL: DIVMTQSPDSLAVSLGERATINCRASKSVSTSGYSYMHWYQQKPGQPPKLLIYLASNLESGVPDRFSGSGSGTDFTLTISSLQAEDVAVYYCQHSRELPYTFGQGTKLEIK
B2: MYT12448 (hu7E6SVG variant, LCV substitutions at 93, 94 (Ala at 94)) (antibody, V domains shown)
VH: B1 VH with H102D, H103R
VL: B1 VL with Q93H, H94A
notes: Full IgG in Expi293 supernatant
B3: MYT12446 (hu7E6SVG variant, LCV substitutions at 60, 97) (antibody, V domains shown)
VH: B1 VH with H102D, H103R
VL: B1 VL with S60H, E97H
notes: as for B2
B4: MYT12447 (hu7E6SVG variant, LCV substitutions at 60, 101) (antibody, V domains shown)
VH: B1 VH with H102D, H103R
VL: B1 VL with S60H, T101H
notes: as for B2
B5: MYT12436 (hu7E6SVG variant, HCV substitutions at 51, 56, 106) (antibody, V domains shown)
VH: B1 VH with I51H, V56H, H102D, H103R, M106H
VL: B1 VL
B6: MYT12449 (hu7E6SVG variant, LCV substitutions at 93, 97) (antibody, V domains shown)
VH: B1 VH with H102D, H103R
VL: B1 VL with Q93H, E97H
notes: as for B2
B7: MYT12469 (hu7E6SVG variant, LCV substitutions at 60, 97, 101) (antibody, V domains shown)
VH: B1 VH with H102D, H103R
VL: B1 VL with S60H, E97H, T101H
notes: as for B2
B8: MYT12437 (hu7E6SVG variant, HCV substitutions at 51, 103, 106) (antibody, V domains shown)
VH: B1 VH with I51H, H102D, M106H
VL: B1 VL
B9: MYT12444 (hu7E6SVG variant, LCV substitutions at 60, 93) (antibody, V domains shown)
VH: B1 VH with H102D, H103R
VL: B1 VL with S60H, Q93H
notes: as for B2
B10: MYT12430 (hu7E6SVG variant, HCV substitutions at 33, 51, 103) (antibody, V domains shown)
VH: B1 VH with G33H, I51H, H102D
VL: B1 VL
B11: MYT12428 (hu7E6SVG variant, HCV substitutions at 103, 106) (antibody, V domains shown)
VH: B1 VH with H102D, M106H
VL: B1 VL
B12: MYT12472 (hu7E6SVG variant, LCV substitutions at 93, 97, 101) (antibody, V domains shown)
VH: B1 VH with H102D, H103R
VL: B1 VL with Q93H, E97H, T101H
notes: as for B2
B13: MYT12432 (hu7E6SVG variant, HCV substitutions at 33, 56, 103) (antibody, V domains shown)
VH: B1 VH with G33H, V56H, H102D
VL: B1 VL
B14: MYT12441 (hu7E6SVG variant, LCV substitutions at 59, 94 (Ala at 94)) (antibody, V domains shown)
VH: B1 VH with H102D, H103R
VL: B1 VL with E59H, H94A
notes: as for B2
B15: MYT12438 (hu7E6SVG variant, HCV substitutions at 56, 103, 106) (antibody, V domains shown)
VH: B1 VH with V56H, H102D, M106H
VL: B1 VL
B16: MYT12453 (hu7E6SVG variant, LCV substitutions at 97, 101) (antibody, V domains shown)
VH: B1 VH with H102D, H103R
VL: B1 VL with E97H, T101H
notes: as for B2
B17: MYT12442 (hu7E6SVG variant, LCV substitutions at 59, 97) (antibody, V domains shown)
VH: B1 VH with H102D, H103R
VL: B1 VL with E59H, E97H
notes: as for B2
B18: MYT12455 (hu7E6SVG variant, LCV substitutions at 59, 60, 94 (Ala at 94)) (antibody, V domains shown)
VH: B1 VH with H102D, H103R
VL: B1 VL with E59H, S60H, H94A
notes: as for B2
B19: MYT12466 (hu7E6SVG variant, LCV substitutions at 60, 93, 101) (antibody, V domains shown)
VH: B1 VH with H102D, H103R
VL: B1 VL with S60H, Q93H, T101H
notes: as for B2
B20: MYT12445 (hu7E6SVG variant, LCV substitutions at 60, 94 (Ala at 94)) (antibody, V domains shown)
VH: B1 VH with H102D, H103R
VL: B1 VL with S60H, H94A
notes: as for B2
B21: MYT12435 (hu7E6SVG variant, HCV substitutions at 51, 56, 103) (antibody, V domains shown)
VH: B1 VH with I51H, V56H, H102D
VL: B1 VL
B22: MYT12451 (hu7E6SVG variant, LCV substitutions at 94, 97 (Ala at 94)) (antibody, V domains shown)
VH: B1 VH with H102D, H103R
VL: B1 VL with H94A, E97H
notes: as for B2
B23: MYT12450 (hu7E6SVG variant, LCV substitutions at 93, 101) (antibody, V domains shown)
VH: B1 VH with H102D, H103R
VL: B1 VL with Q93H, T101H
notes: as for B2
B24: MYT12427 (hu7E6SVG variant, HCV substitutions at 102, 106) (antibody, V domains shown)
VH: B1 VH with H103R, M106H
VL: B1 VL
B25: MYT12443 (hu7E6SVG variant, LCV substitutions at 59, 101) (antibody, V domains shown)
VH: B1 VH with H102D, H103R
VL: B1 VL with E59H, T101H
notes: as for B2
B26: MYT12454 (hu7E6SVG variant, LCV substitutions at 59, 60, 93) (antibody, V domains shown)
VH: B1 VH with H102D, H103R
VL: B1 VL with E59H, S60H, Q93H
notes: as for B2
B27: MYT11636 (antibody, V domains shown)
VH: QVQLVQSGAEVKKPGASVKVSCKASHYTFTTAGMQWVRQAPGQGLEWMGWINTHSGVPKYAEDFKGRVTISADTSTSTAYLQLSSLKSEDTAVYYCARSGFGSSYWYFDVWGQGTLVTVSS
VL: DIQMTQSPSSLSASVGDRVTITCKASQDVSTAVAWYQQKPGKAPKLLIYSASYRYTGVPSRFSGSGSGTDFTLTISSLQPEDFAVYYCQQHYITPLTFGQGTKLEIK
notes: IgG from supernatant; His at HCV position 26; also called datopotamab variant H1 01
B28: MYT11644 (antibody, V domains shown)
VH: B27 VH with H26G, M34H
VL: B27 VL
notes: IgG from supernatant; His at HCV position 34; also called datopotamab variant H1 09
B29: MYT11639 (antibody, V domains shown)
VH: B27 VH with H26G, F29H
VL: B27 VL
notes: IgG from supernatant; His at HCV position 29; also called datopotamab variant H1 04
B30: MYT11641 (antibody, V domains shown)
VH: B27 VH with H26G, T31H
VL: B27 VL
notes: IgG from supernatant; His at HCV position 31; also called datopotamab variant H1 06
B31: MYT11648 (antibody, V domains shown)
VH: B27 VH with H26G, N52H
VL: B27 VL
notes: IgG from supernatant; His at HCV position 52; also called datopotamab variant H2 03
B32: MYT11637 (antibody, V domains shown)
VH: B27 VH with H26G, Y27H
VL: B27 VL
notes: IgG from supernatant; His at HCV position 27; also called datopotamab variant H1 02
B33: MYT11647 (antibody, V domains shown)
VH: B27 VH with H26G, I51H
VL: B27 VL
notes: IgG from supernatant; His at HCV position 51; also called datopotamab variant H2 02
B34: MYT11649 (antibody, V domains shown)
VH: B27 VH with H26G, T53H
VL: B27 VL
notes: IgG from supernatant; His at HCV position 53; also called datopotamab variant H2 04
B35: MYT11651 (antibody, V domains shown)
VH: B27 VH with H26G, S55H
VL: B27 VL
notes: IgG from supernatant; His at HCV position 55; also called datopotamab variant H2 06
B36: MYT11642 (antibody, V domains shown)
VH: B27 VH with H26G, A32H
VL: B27 VL
notes: IgG from supernatant; His at HCV position 32; also called datopotamab variant H1 07
B37: MYT11646 (antibody, V domains shown)
VH: B27 VH with H26G, W50H
VL: B27 VL
notes: IgG from supernatant; His at HCV position 50; also called datopotamab variant H2 01
B38: MYT11640 (antibody, V domains shown)
VH: B27 VH with H26G, T30H
VL: B27 VL
notes: IgG from supernatant; His at HCV position 30; also called datopotamab variant H1 05
B39: MYT11650 (antibody, V domains shown)
VH: B27 VH with H26G, H54A
VL: B27 VL
notes: IgG from supernatant; Ala at HCV position 54 (starting residue His); also called datopotamab variant H2 05
B40: MYT11638 (antibody, V domains shown)
VH: B27 VH with H26G, T28H
VL: B27 VL
notes: IgG from supernatant; His at HCV position 28; also called datopotamab variant H1 03

Changes are numbered by the printed parent chain.

One test has as its target T1, Human TROP2 Protein, His Tag (Acro …). Put plainly: BLI (Octet). For orientation: Biolayer interferometry detects binding as a change in optical thickness at a sensor tip.
As for B1, the binding result is listed as “binds”.
The same measure, in the same setting: as for B2, the entry is “binds”; as for B3, “binds”; as for B4, “binds”.
B5: the binding result is “binds”.
As to B6, the binding result is listed as “binds”.
As for B7, the binding result is recorded as “binds”.
Turning to B8, the binding result was “binds”.
On the same count and under the same terms, as for B9, the entry is “binds”; as for B10, “binds”.
B11: the binding result is “binds”.
For B12, the binding result was “binds”.
Turning to B13, the binding result is reported as “binds”.
The same measure, in the same setting: as for B14, the entry is “binds”; as for B15, “binds”.
On to B16, for which the binding result is “binds”.
Still for that read-out and setting: the value for B17 was “binds”.
The same measure, in the same setting: as for B18, the entry is “binds”.
Still for that read-out and setting: the value for B19 was “binds”; that for B20 was “binds”.
With B21, the binding result is “binds”.
Still for that read-out and setting: the value for B22 was “binds”.
Still for that read-out and setting: the value for B23 was “binds”; that for B24 was “binds”; that for B25 was “binds”.
As to B26, the binding result is given as “binds”.

For a further test, the target named is T2, Human TROP2 Protein, His Tag. The experiment in a line: BLI (Octet).
With B27, the binding result is “binds”.
On the same count and under the same terms, as for B28, the entry is “binds”.
Still for that read-out and setting: the value for B29 was “binds”; that for B30 was “binds”.
For the molecule B31, the binding result is recorded as “binds”.
With B32, the binding result is “binds”.
Regarding B33, the binding result was “binds”.
For B34, the binding result is “binds”.
In the case of B35, the binding result is reported as “binds”.
Regarding B36, the binding result was “binds”.
Turning to B37, the binding result is reported as “binds”.
Consider B38, for which the binding result is recorded as “binds”.
Turning to B39, the binding result is reported as “binds”.
Still for that read-out and setting: as for B40, the entry is “binds”.

(Values after patent publication US20260274985A1 (MYTHIC THERAPEUTICS, published 2026).)
